Experimental data taken from patent US20250074943A1 (Amgen, published 2025).
Bridge positions count the residues as written; N and C are the ends. Primed or numbered codes have the meaning given here. Ends that are not written are not given here. K(PEG4-DBCO-FEA) = Lys whose side chain carries PEG4-DBCO conjugated to fluoroethylazide (FEA); Ttds″ = trioxatridecan-succinamic acid linker

How the values were obtained:
[1] = target: T1, recombinant DLL3 ectodomain (rhDLL3-Fc) (human, UniProt Q9NYJ7 27-492, biotinylated (NHS-LC-LC-biotin) in the BLI and SPR assays); test: SPR (Biacore), biotinylated rhDLL3-Fc on SA chip
T1 construct: also called rDLL3-Fc; recombinant human DLL3 (rDLL3); not shown: Fc part
T1 sequence: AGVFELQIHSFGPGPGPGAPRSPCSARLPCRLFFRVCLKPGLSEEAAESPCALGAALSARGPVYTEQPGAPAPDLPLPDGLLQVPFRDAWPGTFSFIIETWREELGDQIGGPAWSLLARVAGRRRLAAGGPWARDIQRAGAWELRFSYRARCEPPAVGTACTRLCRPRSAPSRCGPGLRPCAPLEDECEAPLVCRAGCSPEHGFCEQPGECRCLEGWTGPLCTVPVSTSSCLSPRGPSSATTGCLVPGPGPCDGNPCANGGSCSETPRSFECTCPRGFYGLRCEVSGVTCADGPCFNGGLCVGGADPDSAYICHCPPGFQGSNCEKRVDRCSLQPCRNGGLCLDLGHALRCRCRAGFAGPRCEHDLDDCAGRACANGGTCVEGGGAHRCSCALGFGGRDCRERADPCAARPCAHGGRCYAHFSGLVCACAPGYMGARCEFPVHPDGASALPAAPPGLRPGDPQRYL

[2] = target: T1, recombinant DLL3 ectodomain (rhDLL3-Fc); test: SPR off-rate, single point (300 nM peptide), biotinylated rhDLL3-Fc on SA chip
Experimental: The off-rate screening of the peptides was done using a Biacore T200 instrument (Cytiva, Sweden). […] Peptides were diluted at 300 nM in PBS-P+1× buffer (Cytiva, Sweden) supplemented with 1% DMSO and 0.1% BSA, then injected over the ligand for five minutes at 30 μl/min, finally dissociation allowed for 1 h. Sensorgrams were analyzed by Biacore T200 Evaluation Software 3.0 (Cytiva, Sweden): specific binding was obtained by subtracting unspecific binding to naked biosensors and a zero analyte concentration made of binding assay buffer (double referencing). Kinetic parameters of koff were measured using a global fitting according to 1:1 Langmuir binding isotherm equation.

[3] = target: T2, human DLL3 expressed on the surface of cells (human, UniProt Q9NYJ7 27-618); test: phage cell ELISA/FACS on DLL3-expressing cells;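 further: phages incubated 1 h at room temperature with cells overexpressing human DLL3, read by flow cytometry fluorescence, then fixed-cell ELISA with anti-M13-HRP at A370 nm, parental cells alongside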
T2 construct: Stably transfected CHO or HEK293 cells; also called huDLL3; hDLL3
T2 sequence: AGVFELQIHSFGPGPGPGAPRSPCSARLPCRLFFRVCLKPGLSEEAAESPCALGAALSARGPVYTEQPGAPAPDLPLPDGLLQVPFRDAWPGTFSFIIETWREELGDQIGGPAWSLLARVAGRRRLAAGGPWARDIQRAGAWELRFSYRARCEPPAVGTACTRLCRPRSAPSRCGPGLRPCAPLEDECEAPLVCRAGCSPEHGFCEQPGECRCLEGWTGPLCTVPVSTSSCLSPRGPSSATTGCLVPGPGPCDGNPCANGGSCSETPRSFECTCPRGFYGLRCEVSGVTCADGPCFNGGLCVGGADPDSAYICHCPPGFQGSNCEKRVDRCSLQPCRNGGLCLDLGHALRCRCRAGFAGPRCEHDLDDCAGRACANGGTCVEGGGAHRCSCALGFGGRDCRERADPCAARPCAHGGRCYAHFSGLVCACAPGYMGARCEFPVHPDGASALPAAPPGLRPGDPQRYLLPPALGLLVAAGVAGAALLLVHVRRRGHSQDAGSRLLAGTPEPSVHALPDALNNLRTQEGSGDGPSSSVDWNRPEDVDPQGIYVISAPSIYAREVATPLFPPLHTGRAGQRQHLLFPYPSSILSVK
Experimental: The pools of phages were also screened for their binding to cells overexpressing human DLL3 on their surface. Cells were detached, counted and re-suspended at 1.8×10⁶ cell/ml in FACS buffer containing 2% FBS. Pre-blocked phages were then added to the cells and incubated for 1 hr at room temperature. […] Cells were then washed and re-suspended into FACS buffer. Fluorescence was acquired using a flow cytometer (FACS Canto/Becton Dickinson).
Phage clones with signal higher than four-fold above the background were further tested for their binding to DLL3 on the surface of cells expressing DLL3 by cell ELISA. Briefly, parental cells and cells overexpressing DLL3 were plated on 96 well plate the day before the assay. The cells were then fixed and washed before the addition of pre-blocked phages as previously described. The cells were then washed and anti-M13-HRP was added. The signal was measured using a Multiskan Ascent (Thermo) ELISA reader at A370 nm.

[4] = target: T1, recombinant DLL3 ectodomain (rhDLL3-Fc); test: phage ELISA on rDLL3-Fc
Experimental: The pools of phages obtained after each round of selection were tested by Phage-ELISA for their binding to rDLL3-Fc and counter-screened on hIgG-Fc. Briefly, proteins were immobilized on NUNC-Maxisorp ELISA plates. Then the plates were washed and blocked. 100 μl of pre-blocked phages were added to the blocked plate and incubated for 1 hr at room temperature. Anti-M13 HRP conjugated mAb were added and the plates were read on a Multiskan Ascent (Thermo) Elisa reader at A370 nm after the addition of TMB (Sigma).

For Ac-AETVEFWWCNGNSENWTCTWGG-{Ttds″-K(PEG3)} (disulfide 9-18 (inferred); also: dimer of two copies, carries PEG4-DBCO, also called PspSP1487) [PepSP1487], which Kd [1] is on record?
The Kd was 5.5 nM.

And the koff [1]?
The koff was 0.00042 s⁻¹.

What about the kon [1] of the same binder?
Its kon is 76000 M⁻¹ s⁻¹.

B1: PepSP1581 (peptide)
peptide: Ac-AETVEFWWCNGNSENWTCTWGG-{Ttds″-K(PEG3)}
modifications: disulfide 9-18 (inferred); also: dimer linked via PEG4-DBCO-FEA
notes: also called dimeric FEA derivative of PepSP1487
Which koff [2] does the source give for B1 here?
Its koff is 3.4e-05 s⁻¹.

Does AETVEFYNCWYKMGWYVCWS (disulfide 9-18 (inferred); not fully specified (C-terminus), not shown: M13 pIII coat protein) [SEQ ID NO 75] bind [3]?
Result: binds

Does AETVEFYNCWYKMGWYVCWS (disulfide 9-18 (inferred); not fully specified (C-terminus), not shown: M13 pIII coat protein) [SEQ ID NO 75] bind [4]?
Result: binds

What does the source list for Ac-AETVEFWWCNGNSENWTCTWGG-{Ttds″-K(Ttds-Ttds-PEG3)} (disulfide 9-18 (inferred); also: dimer linked via PEG4-DBCO, also called PspSP1489) [PepSP1489]?
Kd [1]: 3.3 nM; koff [1]: 0.00037 s⁻¹; kon [1]: 110000 M⁻¹ s⁻¹

B2: PepSP1538 (peptide)
peptide: Ac-AETVEFWWCNGNSENWTCTWGG-{Ttds″-K(PEG4-DBCO-FEA)-NH2}
modifications: disulfide 9-18 (inferred)
notes: also called monomeric Fluoroethylazide (FEA) derivative of PepSP1462
Which koff [2] does the source give for B2 here?
Its koff is 0.0039 s⁻¹.

What does the source list for Ac-AETVEFWWCNGNSENWTCTWGG-{Ttds-K(PEG4-DBCO)-NH2} (disulfide 9-18 (inferred), also called PspSP1462) [PepSP1462]?
Kd [1]: 6.3 nM; koff [1]: 0.0014 s⁻¹; kon [1]: 230000 M⁻¹ s⁻¹

Does AETVEFYGCYGEQEQWTCLW (not shown: M13 pIII coat protein) [SEQ ID NO 59] bind [3]?
Result: binds

Does AETVEFYGCYGEQEQWTCLW (not shown: M13 pIII coat protein) [SEQ ID NO 59] bind [4]?
Result: binds

Which results are given for AETVEFWGCTGGAWEYTCWW (disulfide 9-18 (inferred); not fully specified (C-terminus), not shown: M13 pIII coat protein) [SEQ ID NO 73]?
binding result [3]: binds; binding result [4]: binds

Does AETVEFMRCYPWWYGPMCVR (not fully specified (bridges); cysteine pairing not given here, not shown: M13 pIII coat protein) [SEQ ID NO 63] bind [3]?
Result: binds

Does AETVEFMRCYPWWYGPMCVR (not fully specified (bridges); cysteine pairing not given here, not shown: M13 pIII coat protein) [SEQ ID NO 63] bind [4]?
Result: binds

B3: PepSP1582 (peptide)
peptide: Ac-AETVEFWWCNGNSENWTCTWGG-{Ttds″-K(PEG4-PEG3)}
modifications: disulfide 9-18 (inferred); also: dimer linked via PEG4-DBCO-FEA
notes: also called dimeric FEA derivative of PepSP1488
B3 was tested. Which koff [2] did it give?
The koff was 3.6e-05 s⁻¹.

Which results are given for AETVEFETCWYLYGREWCVG (not fully specified (bridges); cysteine pairing not given here, not shown: M13 pIII coat protein) [SEQ ID NO 62]?
binding result [3]: binds; binding result [4]: binds

Does AETVEFCRAYSNWFYIC (disulfide 7-17 (inferred); not fully specified (C-terminus), not shown: M13 pIII coat protein) [SEQ ID NO 76] bind [3]?
Result: binds

Does AETVEFCRAYSNWFYIC (disulfide 7-17 (inferred); not fully specified (C-terminus), not shown: M13 pIII coat protein) [SEQ ID NO 76] bind [4]?
Result: binds

Does AETVEFYGCDLWKGWTVCGY (not fully specified (bridges); cysteine pairing not given here, not shown: M13 pIII coat protein) [SEQ ID NO 67] bind [3]?
Result: binds

Does AETVEFYGCDLWKGWTVCGY (not fully specified (bridges); cysteine pairing not given here, not shown: M13 pIII coat protein) [SEQ ID NO 67] bind [4]?
Result: binds

Does AETVEFYGCSVNADGWTCSW (not shown: M13 pIII coat protein) [SEQ ID NO 58] bind [3]?
Result: binds

Does AETVEFYGCSVNADGWTCSW (not shown: M13 pIII coat protein) [SEQ ID NO 58] bind [4]?
Result: binds

Does AETVEFYGCWWDAYGSTCTW (not fully specified (bridges); cysteine pairing not given here, not shown: M13 pIII coat protein) [SEQ ID NO 66] bind [3]?
Result: binds

Does AETVEFYGCWWDAYGSTCTW (not fully specified (bridges); cysteine pairing not given here, not shown: M13 pIII coat protein) [SEQ ID NO 66] bind [4]?
Result: binds

Does AETVEFYGCKWDWKGWTCAW (not shown: M13 pIII coat protein) [SEQ ID NO 57] bind [3]?
Result: binds

Does AETVEFYGCKWDWKGWTCAW (not shown: M13 pIII coat protein) [SEQ ID NO 57] bind [4]?
Result: binds

Which results are given for AETVEFYGCSVTWGGYTCTW (disulfide 9-18 (inferred); not fully specified (C-terminus), not shown: M13 pIII coat protein) [SEQ ID NO 74]?
binding result [3]: binds; binding result [4]: binds

Which results are given for AETVEFYGCWGNYNDYTCSW (not shown: M13 pIII coat protein) [SEQ ID NO 61]?
binding result [3]: binds; binding result [4]: binds

What does the source list for AETVEFWTCWETTEGYGCNW (not fully specified (bridges); cysteine pairing not given here, not shown: M13 pIII coat protein) [SEQ ID NO 72]?
binding result [3]: binds; binding result [4]: binds

Does AETVEFWTCWTVYGKSSCWD (not fully specified (bridges); cysteine pairing not given here, not shown: M13 pIII coat protein) [SEQ ID NO 65] bind [3]?
Result: binds

Does AETVEFWTCWTVYGKSSCWD (not fully specified (bridges); cysteine pairing not given here, not shown: M13 pIII coat protein) [SEQ ID NO 65] bind [4]?
Result: binds

Does AETVEFWGCNLDWYGWTCWW (not fully specified (bridges); cysteine pairing not given here, not shown: M13 pIII coat protein) [SEQ ID NO 69] bind [3]?
Result: binds

Does AETVEFWGCNLDWYGWTCWW (not fully specified (bridges); cysteine pairing not given here, not shown: M13 pIII coat protein) [SEQ ID NO 69] bind [4]?
Result: binds

Which Kd [1] does the source give for Ac-AETVEFWWCNGNSENWTCTWGG-{Ttds″-K(PEG4-PEG3)} (disulfide 9-18 (inferred); also: dimer linked via PEG4-DBCO, also called PspSP1488) [PepSP1488] here?
The Kd was 2.6 nM.

What about the koff [1] of the same binder?
Its koff is 0.00031 s⁻¹.

What about the kon [1] of the same binder?
Its kon is 120000 M⁻¹ s⁻¹.

Does AETVEFYGCETYSGGWTCLW (not shown: M13 pIII coat protein) [SEQ ID NO 56] bind [3]?
Result: binds

Does AETVEFYGCETYSGGWTCLW (not shown: M13 pIII coat protein) [SEQ ID NO 56] bind [4]?
Result: binds

Does AETVEFYGCQYYGWDYTCAW (not shown: M13 pIII coat protein) [SEQ ID NO 60] bind [3]?
Result: binds

Does AETVEFYGCQYYGWDYTCAW (not shown: M13 pIII coat protein) [SEQ ID NO 60] bind [4]?
Result: binds

Which results are given for AETVEFRYCTHTQTYVQCQD (not fully specified (bridges); cysteine pairing not given here, not shown: M13 pIII coat protein) [SEQ ID NO 68]?
binding result [3]: binds; binding result [4]: binds

Does AETVEFWSCVVYGDNWTCSS (not fully specified (bridges); cysteine pairing not given here, not shown: M13 pIII coat protein) [SEQ ID NO 70] bind [3]?
Result: binds

Does AETVEFWSCVVYGDNWTCSS (not fully specified (bridges); cysteine pairing not given here, not shown: M13 pIII coat protein) [SEQ ID NO 70] bind [4]?
Result: binds

Does AETVEFWGCLGMGYDRTCWW (not fully specified (bridges); cysteine pairing not given here, not shown: M13 pIII coat protein) [SEQ ID NO 64] bind [3]?
Result: binds

Does AETVEFWGCLGMGYDRTCWW (not fully specified (bridges); cysteine pairing not given here, not shown: M13 pIII coat protein) [SEQ ID NO 64] bind [4]?
Result: binds

Does AETVEFWSCQLGSGWWTCAW (not fully specified (bridges); cysteine pairing not given here, not shown: M13 pIII coat protein) [SEQ ID NO 71] bind [3]?
Result: binds

Does AETVEFWSCQLGSGWWTCAW (not fully specified (bridges); cysteine pairing not given here, not shown: M13 pIII coat protein) [SEQ ID NO 71] bind [4]?
Result: binds
